Reference: the supplement of paper PMC10065799, “High-throughput profiling of sequence recognition by tyrosine kinases and SH2 domains using bacterial peptide display” (eLife, 2023)

What was measured:
SHP2-C SH2 = test: SH2 binding enrichment of the phosphorylated peptide, bacterial display (enrichment ratio); higher = better substrate or ligand; peptides without Tyr show the background
Grb2 SH2 = Grb2 SH2 (UniProt P62993); test: as above
c-Src SH2 = test: as above
Fes = Fes (UniProt P07332); test: phosphorylation enrichment, bacterial display (enrichment ratio); higher = better substrate or ligand; peptides without Tyr show the background
Fer (mouse) = test: as above
AncSZ = test: as above
Hck = Hck (UniProt P08631); test: as above
EPHB2 = EPHB2 (UniProt P29323); test: as above
Jak2 = Jak2 (UniProt O60674); test: as above
EPHB1 = EPHB1 (UniProt P54762); test: as above
MERTK = MERTK (UniProt Q12866); test: as above
FGFR3 = FGFR3 (UniProt P22607); test: as above
c-Abl (mouse) = test: as above
FGFR1 = FGFR1 (UniProt P11362); test: as above
Fyn = Fyn (UniProt P06241); test: as above
c-Src = test: as above
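Wherever SH2 binding enrichment of the phosphorylated peptide, bacterial display is given: peptide library displayed on the E. coli surface as eCPX fusions, selected cells deep-sequenced, score is each peptide's frequency after selection divided by its frequency in the input.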
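Wherever phosphorylation enrichment, bacterial display is given: 11-residue human phosphosite peptides and single-mutation variants displayed on the E. coli surface, counted by deep sequencing, each peptide's frequency after selection divided by its frequency in the unselected input library; frequency after pTyr selection over input frequency; kinase dosed for 20-30% of maximal phosphorylation in three min.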

Sequence of Hck (P08631 whole entry, looked up): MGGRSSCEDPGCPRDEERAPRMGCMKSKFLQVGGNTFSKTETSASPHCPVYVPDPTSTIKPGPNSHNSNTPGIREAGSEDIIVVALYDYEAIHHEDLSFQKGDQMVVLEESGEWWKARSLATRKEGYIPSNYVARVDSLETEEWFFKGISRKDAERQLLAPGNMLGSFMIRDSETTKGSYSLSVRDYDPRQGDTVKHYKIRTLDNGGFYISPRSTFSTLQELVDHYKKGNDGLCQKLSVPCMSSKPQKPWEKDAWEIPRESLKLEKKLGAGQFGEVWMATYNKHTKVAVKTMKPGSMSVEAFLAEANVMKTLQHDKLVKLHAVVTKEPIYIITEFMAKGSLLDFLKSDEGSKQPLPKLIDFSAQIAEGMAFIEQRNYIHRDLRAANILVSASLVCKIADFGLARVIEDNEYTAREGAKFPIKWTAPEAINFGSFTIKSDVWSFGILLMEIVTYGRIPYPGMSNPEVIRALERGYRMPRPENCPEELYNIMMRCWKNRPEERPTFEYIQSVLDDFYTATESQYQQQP
Sequence of Jak2 (O60674 whole entry, looked up): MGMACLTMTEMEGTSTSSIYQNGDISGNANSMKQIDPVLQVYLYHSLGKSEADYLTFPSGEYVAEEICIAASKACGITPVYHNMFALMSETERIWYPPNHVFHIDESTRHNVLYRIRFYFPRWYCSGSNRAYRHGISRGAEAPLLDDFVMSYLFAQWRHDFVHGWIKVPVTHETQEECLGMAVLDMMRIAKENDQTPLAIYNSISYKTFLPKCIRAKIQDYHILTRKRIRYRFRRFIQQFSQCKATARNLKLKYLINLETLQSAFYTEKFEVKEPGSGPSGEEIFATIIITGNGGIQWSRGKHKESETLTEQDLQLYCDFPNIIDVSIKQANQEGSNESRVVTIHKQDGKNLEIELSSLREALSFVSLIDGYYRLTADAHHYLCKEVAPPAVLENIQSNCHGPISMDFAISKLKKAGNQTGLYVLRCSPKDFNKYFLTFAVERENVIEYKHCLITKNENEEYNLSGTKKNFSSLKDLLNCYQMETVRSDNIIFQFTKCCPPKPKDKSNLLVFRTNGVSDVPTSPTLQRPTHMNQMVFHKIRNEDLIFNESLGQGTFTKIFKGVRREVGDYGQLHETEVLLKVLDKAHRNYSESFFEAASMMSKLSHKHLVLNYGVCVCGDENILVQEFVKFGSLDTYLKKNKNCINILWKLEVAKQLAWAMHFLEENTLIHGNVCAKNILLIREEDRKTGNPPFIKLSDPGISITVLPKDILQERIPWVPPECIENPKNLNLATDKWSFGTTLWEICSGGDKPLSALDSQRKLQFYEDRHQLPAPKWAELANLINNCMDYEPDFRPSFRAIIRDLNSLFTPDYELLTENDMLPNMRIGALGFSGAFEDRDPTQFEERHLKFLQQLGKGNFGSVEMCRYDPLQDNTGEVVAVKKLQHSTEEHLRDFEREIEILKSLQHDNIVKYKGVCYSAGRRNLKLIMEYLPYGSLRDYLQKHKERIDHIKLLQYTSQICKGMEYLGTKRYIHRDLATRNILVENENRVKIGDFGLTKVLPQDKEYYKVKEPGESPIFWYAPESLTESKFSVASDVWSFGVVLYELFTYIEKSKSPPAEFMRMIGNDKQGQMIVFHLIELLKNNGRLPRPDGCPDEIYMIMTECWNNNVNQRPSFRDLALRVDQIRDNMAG
Sequence of EPHB2 (P29323 whole entry, looked up): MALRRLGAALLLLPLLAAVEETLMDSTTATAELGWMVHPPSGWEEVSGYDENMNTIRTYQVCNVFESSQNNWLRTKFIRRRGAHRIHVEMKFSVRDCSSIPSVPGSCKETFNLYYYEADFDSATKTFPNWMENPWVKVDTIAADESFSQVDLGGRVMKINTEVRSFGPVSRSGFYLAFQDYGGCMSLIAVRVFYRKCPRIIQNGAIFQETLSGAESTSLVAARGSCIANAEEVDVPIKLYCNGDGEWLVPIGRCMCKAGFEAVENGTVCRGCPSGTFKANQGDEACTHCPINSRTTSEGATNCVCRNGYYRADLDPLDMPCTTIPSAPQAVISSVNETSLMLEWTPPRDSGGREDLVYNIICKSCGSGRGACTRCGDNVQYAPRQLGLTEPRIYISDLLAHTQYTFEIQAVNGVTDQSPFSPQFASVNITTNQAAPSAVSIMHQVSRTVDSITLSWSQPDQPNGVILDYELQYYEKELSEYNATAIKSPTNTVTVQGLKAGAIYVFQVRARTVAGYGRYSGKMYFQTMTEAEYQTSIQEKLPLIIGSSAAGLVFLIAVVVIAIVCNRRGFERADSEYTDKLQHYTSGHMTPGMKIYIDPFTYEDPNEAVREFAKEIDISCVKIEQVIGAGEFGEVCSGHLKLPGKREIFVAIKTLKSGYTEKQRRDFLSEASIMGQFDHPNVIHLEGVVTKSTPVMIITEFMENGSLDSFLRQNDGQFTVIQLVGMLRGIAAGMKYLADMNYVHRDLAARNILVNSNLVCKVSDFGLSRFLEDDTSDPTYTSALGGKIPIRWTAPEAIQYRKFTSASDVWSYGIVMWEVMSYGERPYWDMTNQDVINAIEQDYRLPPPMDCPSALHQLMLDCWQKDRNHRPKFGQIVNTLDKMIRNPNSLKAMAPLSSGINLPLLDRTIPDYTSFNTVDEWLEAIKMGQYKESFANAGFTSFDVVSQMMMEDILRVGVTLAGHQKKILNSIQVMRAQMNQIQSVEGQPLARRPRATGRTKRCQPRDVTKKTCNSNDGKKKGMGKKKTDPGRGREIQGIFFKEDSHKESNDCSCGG
Sequence of MERTK (Q12866 whole entry, looked up): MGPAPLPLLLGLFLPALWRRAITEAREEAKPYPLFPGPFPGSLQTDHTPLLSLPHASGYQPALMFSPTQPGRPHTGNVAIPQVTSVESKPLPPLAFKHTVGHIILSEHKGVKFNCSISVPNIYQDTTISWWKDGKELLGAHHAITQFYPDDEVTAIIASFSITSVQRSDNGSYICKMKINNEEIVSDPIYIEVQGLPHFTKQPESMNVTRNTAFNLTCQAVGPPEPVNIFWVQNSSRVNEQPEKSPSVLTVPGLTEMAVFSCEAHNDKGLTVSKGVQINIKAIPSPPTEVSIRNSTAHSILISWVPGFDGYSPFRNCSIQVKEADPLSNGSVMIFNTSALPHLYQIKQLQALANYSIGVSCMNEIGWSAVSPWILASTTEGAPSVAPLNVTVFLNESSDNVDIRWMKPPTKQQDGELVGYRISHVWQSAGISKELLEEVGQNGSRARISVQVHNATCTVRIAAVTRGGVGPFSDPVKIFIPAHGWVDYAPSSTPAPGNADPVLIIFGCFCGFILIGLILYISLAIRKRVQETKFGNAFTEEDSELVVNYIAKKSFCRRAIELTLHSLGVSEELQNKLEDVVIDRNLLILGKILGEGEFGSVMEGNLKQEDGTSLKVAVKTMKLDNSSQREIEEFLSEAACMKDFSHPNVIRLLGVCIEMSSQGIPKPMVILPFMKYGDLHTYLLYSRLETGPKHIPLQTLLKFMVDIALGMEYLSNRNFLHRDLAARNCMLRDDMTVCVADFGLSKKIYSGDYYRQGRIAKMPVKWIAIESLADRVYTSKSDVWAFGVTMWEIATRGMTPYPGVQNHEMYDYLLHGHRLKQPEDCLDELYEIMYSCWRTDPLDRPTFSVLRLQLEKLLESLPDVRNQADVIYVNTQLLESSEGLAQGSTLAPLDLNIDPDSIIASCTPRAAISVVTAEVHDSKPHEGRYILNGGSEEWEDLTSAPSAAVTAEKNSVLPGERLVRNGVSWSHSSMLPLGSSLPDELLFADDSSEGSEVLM
Sequence of EPHB1 (P54762 whole entry, looked up): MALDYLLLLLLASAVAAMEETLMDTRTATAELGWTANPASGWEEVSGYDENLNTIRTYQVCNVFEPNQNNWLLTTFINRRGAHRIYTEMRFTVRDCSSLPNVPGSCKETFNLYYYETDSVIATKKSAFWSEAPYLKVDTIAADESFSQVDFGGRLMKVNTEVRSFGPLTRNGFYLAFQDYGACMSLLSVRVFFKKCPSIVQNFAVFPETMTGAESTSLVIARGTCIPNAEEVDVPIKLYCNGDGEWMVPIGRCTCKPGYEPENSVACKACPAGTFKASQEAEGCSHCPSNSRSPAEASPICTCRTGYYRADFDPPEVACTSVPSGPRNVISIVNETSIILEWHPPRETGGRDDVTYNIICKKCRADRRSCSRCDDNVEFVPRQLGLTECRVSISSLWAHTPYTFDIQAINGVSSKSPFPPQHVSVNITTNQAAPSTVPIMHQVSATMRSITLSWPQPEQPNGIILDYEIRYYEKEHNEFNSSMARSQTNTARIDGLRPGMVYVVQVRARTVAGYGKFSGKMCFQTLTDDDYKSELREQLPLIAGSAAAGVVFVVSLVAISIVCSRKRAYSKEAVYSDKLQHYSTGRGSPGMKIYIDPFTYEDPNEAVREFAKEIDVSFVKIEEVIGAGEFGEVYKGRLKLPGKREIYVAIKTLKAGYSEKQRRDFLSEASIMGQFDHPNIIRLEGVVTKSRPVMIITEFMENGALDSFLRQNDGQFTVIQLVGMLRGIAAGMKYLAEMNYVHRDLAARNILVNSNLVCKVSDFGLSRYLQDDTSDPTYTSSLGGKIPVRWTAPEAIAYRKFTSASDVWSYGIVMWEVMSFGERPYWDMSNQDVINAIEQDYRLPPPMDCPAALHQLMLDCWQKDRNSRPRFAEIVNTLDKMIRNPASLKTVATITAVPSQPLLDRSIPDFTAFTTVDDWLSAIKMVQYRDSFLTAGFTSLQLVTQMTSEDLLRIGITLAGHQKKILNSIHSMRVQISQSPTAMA

| SH2 binding enrichment (SHP2-C SH2) | SH2 binding enrichment (Grb2 SH2) | SH2 binding enrichment (c-Src SH2) | Sequence | phosphorylation enrichment (Fes) | phosphorylation enrichment (Fer (mouse)) | phosphorylation enrichment (AncSZ) | phosphorylation enrichment (Hck) | phosphorylation enrichment (EPHB2) | phosphorylation enrichment (Jak2) | phosphorylation enrichment (EPHB1) | phosphorylation enrichment (MERTK) | phosphorylation enrichment (FGFR3) | phosphorylation enrichment (c-Abl (mouse)) | phosphorylation enrichment (FGFR1) | phosphorylation enrichment (Fyn) | phosphorylation enrichment (c-Src) |
| --- | --- | --- | --- | --- | --- | --- | --- | --- | --- | --- | --- | --- | --- | --- | --- | --- |
| 0.713 | 0.746 | 0.548 | MFDKEYFSVHN [MET_Y1234_YF] | 1.03 | 0.451 | 1.31 | 0.513 | 0.566 | 1.46 | 0.605 | 0.393 | 1.31 | 0.782 | 1.84 | 0.488 | 0.632 |
| 0.829 | 1.2 | 0.675 | KDQPDYKFQPR [SOX9_Y172_H169Q_YF] | 0.678 | 0.381 | 0.666 | 0.386 | 0.402 | 0.491 | 0.348 | 0.46 | 0.529 | 0.457 | 0.422 | 0.382 | 0.434 |
| 0.74 | 0.709 | 0.559 | GLQDEYDFKCK [STAT1_Y170_D165G] | 1.12 | 0.467 | 1.09 | 0.597 | 0.63 | 1.18 | 0.509 | 0.453 | 0.555 | 0.831 | 0.626 | 0.453 | 0.543 |
| 0.742 | 0.948 | 0.611 | ETCLAYREKRI [TEKT1_Y118] | 0.956 | 0.371 | 1.07 | 0.49 | 0.519 | 0.693 | 0.466 | 0.508 | 0.558 | 0.503 | 0.61 | 0.536 | 0.423 |
| 0.61 | 1.13 | 0.331 | RFGKVYKGHLF [ROR2_Y488] | 0.924 | 0.585 | 0.806 | 0.604 | 0.767 | 0.803 | 0.377 | 1.02 | 0.754 | 1.69 | 0.661 | 0.717 | 0.86 |
| 1.48 | 1.09 | 0.54 | LWQSIYNLEAE [TNNT2_Y251] | 1.45 | 0.544 | 1.33 | 7.01 | 0.791 | 0.921 | 0.793 | 0.664 | 1.05 | 0.881 | 0.66 | 12.4 | 6.57 |
| 0.752 | 1.09 | 0.607 | RLGDLYKEEMR [VIM_Y150_E151K] | 1.17 | 0.43 | 1.08 | 0.824 | 0.672 | 0.995 | 0.779 | 0.362 | 0.832 | 0.762 | 0.674 | 0.756 | 0.587 |
| 0.814 | 0.817 | 14.8 | ALEHKYWALGQ [MAP1A_Y1555_Q1553H] | 0.966 | 0.492 | 0.859 | 0.621 | 0.539 | 0.709 | 0.546 | 0.596 | 0.582 | 0.652 | 0.601 | 0.801 | 1.39 |
| 0.559 | 0.797 | 3.04 | PGAGHYEDTIL [ALK_Y1604] | 1.16 | 6.12 | 1.15 | 0.786 | 0.597 | 0.896 | 0.871 | 0.597 | 0.881 | 0.765 | 0.664 | 0.809 | 0.391 |
| 0.609 | 0.707 | 0.348 | EAEALYQTKFQ [KRT73_Y325] | 1.19 | 0.964 | 1.33 | 2.65 | 0.645 | 0.976 | 0.58 | 0.569 | 0.687 | 0.85 | 0.534 | 1.32 | 1.44 |
| 1.06 | 1.05 | 1.45 | LENSTYQYIHV [CRB1_Y760_R764H] | 1.68 | 17.8 | 2.84 | 7.21 | 5.17 | 1.18 | 11.2 | 7.77 | 5.6 | 1.01 | 9.48 | 3.32 | 3.15 |

Continued, sequence first:

| Sequence | SH2 binding enrichment (SHP2-C SH2) | SH2 binding enrichment (Grb2 SH2) | SH2 binding enrichment (c-Src SH2) | phosphorylation enrichment (Fes) | phosphorylation enrichment (Fer (mouse)) | phosphorylation enrichment (AncSZ) | phosphorylation enrichment (Hck) | phosphorylation enrichment (EPHB2) | phosphorylation enrichment (Jak2) | phosphorylation enrichment (EPHB1) | phosphorylation enrichment (MERTK) | phosphorylation enrichment (FGFR3) | phosphorylation enrichment (c-Abl (mouse)) | phosphorylation enrichment (FGFR1) | phosphorylation enrichment (Fyn) | phosphorylation enrichment (c-Src) |
| --- | --- | --- | --- | --- | --- | --- | --- | --- | --- | --- | --- | --- | --- | --- | --- | --- |
| DRPSEYAARQL [ANXA13_Y90] | 0.699 | 0.746 | 0.523 | 0.655 | 0.341 | 0.598 | 0.428 | 0.456 | 0.498 | 0.408 | 0.437 | 0.482 | 0.579 | 0.445 | 0.453 | 0.389 |
| FDGKEYDPVEA [MAPRE2_Y167_YF] | 0.408 | 0.985 | 0.795 | 1.43 | 0.631 | 1.5 | 0.617 | 0.545 | 1.2 | 0.636 | 0.493 | 0.801 | 0.924 | 0.545 | 0.62 | 0.573 |
| FYNSEYGELSE [FLT4_Y1337] | 0.805 | 0.886 | 0.748 | 1.36 | 0.684 | 1.47 | 0.997 | 0.956 | 1.58 | 0.729 | 0.589 | 0.932 | 0.986 | 0.628 | 1.59 | 1.69 |
| TFGVAYRAKDK [CDK11B_Y453_V452A_YF] | 0.674 | 0.842 | 0.507 | 1.03 | 0.342 | 1.08 | 0.537 | 0.575 | 1.09 | 0.472 | 0.358 | 0.484 | 0.498 | 0.418 | 0.437 | 0.282 |
| RRERLYGGGGG [FUS_Y526_P525L] | 0.404 | 0.657 | 0.402 | 1.14 | 0.499 | 0.701 | 0.365 | 0.398 | 0.528 | 0.677 | 0.561 | 0.545 | 0.39 | 0.546 | 0.535 | 0.878 |
| QDGYSYPSRQM [LDLR_Y847] | 0.732 | 0.857 | 6.19 | 1.21 | 0.557 | 1.98 | 0.475 | 0.576 | 1.17 | 0.49 | 0.983 | 0.87 | 0.663 | 0.88 | 0.624 | 0.734 |
| KNRDVSSSDYF [USP24_Y2134_Y2134S] | 0.7 | 0.921 | 0.523 | 0.653 | 0.363 | 0.921 | 0.402 | 0.447 | 0.578 | 0.476 | 0.442 | 0.521 | 0.61 | 0.523 | 0.476 | 0.543 |
| FRASFYRKGGC [ALK_Y1283_YF] | 0.502 | 0.616 | 0.499 | 0.902 | 0.466 | 0.866 | 0.477 | 0.527 | 0.683 | 0.459 | 0.579 | 0.532 | 0.663 | 0.531 | 0.618 | 0.586 |
| DTDSSYCIPTA [GAB1_Y373] | 0.854 | 0.95 | 0.741 | 1.18 | 0.519 | 1.99 | 0.578 | 0.598 | 1.07 | 0.692 | 1.01 | 0.65 | 0.73 | 0.592 | 0.518 | 0.497 |
| GYYDLYGGEKF [PTPN11_Y66_D61G] | 0.778 | 0.939 | 3.86 | 0.931 | 3.13 | 1.3 | 6.7 | 9.35 | 3.15 | 3.27 | 6.61 | 8.65 | 0.68 | 10.9 | 7.27 | 4.54 |
| MLNTNYHLPPS [MT-ATP8_Y33] | 0.67 | 1 | 0.515 | 0.526 | 0.327 | 0.705 | 0.297 | 0.514 | 0.502 | 0.617 | 0.757 | 2.43 | 0.556 | 3.4 | 0.384 | 0.354 |
| EEKKKYYDAKI [CASP5_Y103_T106A] | 1.02 | 1.28 | 0.521 | 0.764 | 0.447 | 0.626 | 0.411 | 0.432 | 0.848 | 0.467 | 0.429 | 0.518 | 0.565 | 0.529 | 0.371 | 0.396 |
| DDHFTYSRYPW [LY75_Y888] | 0.942 | 0.531 | 0.432 | 1.13 | 0.642 | 1.49 | 6.62 | 7.92 | 1.13 | 4.66 | 1.23 | 0.969 | 1.86 | 0.576 | 4.82 | 5.2 |
| RVDRDYVLKSA [HTATIP2_Y111] | 0.653 | 0.976 | 0.418 | 0.872 | 0.665 | 1.08 | 0.772 | 0.442 | 0.75 | 0.487 | 0.857 | 0.585 | 0.709 | 0.627 | 0.47 | 0.961 |
| ETSHNYHKFDS [MATR3_Y243] | 0.881 | 0.623 | 1.11 | 0.551 | 0.372 | 0.463 | 0.395 | 0.451 | 0.662 | 0.416 | 0.393 | 0.475 | 0.61 | 0.393 | 0.401 | 0.475 |
| VLVSQYEKLDA [AMZ2_Y26_N30D] | 0.602 | 0.896 | 7.26 | 0.826 | 0.47 | 0.808 | 0.484 | 0.606 | 0.738 | 0.561 | 0.462 | 0.589 | 0.586 | 0.366 | 0.489 | 0.539 |
| FRQNGYIPGSN [PCDHGA1_Y895_V894G_YF] | 0.607 | 0.807 | 0.481 | 0.548 | 0.377 | 0.5 | 0.392 | 0.359 | 0.544 | 0.396 | 0.393 | 0.437 | 0.499 | 0.416 | 0.403 | 0.435 |
| TPTFPYLLPKS [PLD2_Y580_YF] | 1.01 | 1.01 | 0.587 | 0.63 | 0.382 | 0.623 | 0.423 | 0.464 | 0.519 | 0.44 | 0.51 | 0.406 | 0.499 | 0.503 | 0.501 | 0.451 |
